Results published in PMC6773690, “Scribble co-operatively binds multiple α1D-adrenergic receptor C-terminal PDZ ligands” (Scientific Reports, 2019).
Blank lines part the entries; values can stand above or below the molecule they belong to. Ends that are not written are not given here. BG‑782 = not defined here

Assays:
[1] = target: biotin-labeled peptide containing the last 20 amino acids of the α1D-adrenergic receptor C-terminus (human) (UniProt P25100); experiment: BLI; Octet Red 96; 50 nM biotin-labeled α1D-CT peptide immobilised on streptavidin probes, then biocytin; serial dilutions of purified PDZ proteins as analytes until steady state; 20 mM Tris-HCl pH 8.0, 200 mM NaCl, 0.1% bovine serum albumin
[2] = target: GST-SCRIB containing all 4 PDZ domains (WT); experiment: BLI; reverse BLI: GST-SCRIB immobilised on anti-GST probes, serial dilutions of biotin-labeled α1D-CT as analyte; 20 mM Tris-HCl pH 8.0, 200 mM NaCl, 0.1% bovine serum albumin
GST-SCRIB PDZ domain 1 = target: T1, GST-SCRIB PDZ domain 1 (UniProt Q14160 728-815); experiment: BLI; Octet Red 96; 50 nM biotin-labeled α1D-CT peptide immobilised on streptavidin probes, then biocytin; serial dilutions of purified PDZ proteins as analytes until steady state; 20 mM Tris-HCl pH 8.0, 200 mM NaCl, 0.1% bovine serum albumin; conditions: both partners purified
T1 construct: scribble (SCRIB), PDZ domain 1 alone; also called SCRIB PDZ1; PDZ1; source: E. coli Rosetta (DE3), purified (glutathione agarose); not shown: GST, N-terminal, kept

[3] = target: T2, calcium/calmodulin-dependent serine protein kinase (CASK) PDZ domain (UniProt O14936 489-564); experiment: as above; conditions: both partners purified
T2 construct: calcium/calmodulin-dependent serine protein kinase (CASK), PDZ domain; The methods elute GST proteins with glutathione; TEV cleavage is told only for crystallography; source: E. coli Rosetta (DE3), purified (glutathione agarose)
T2 sequence (looked up): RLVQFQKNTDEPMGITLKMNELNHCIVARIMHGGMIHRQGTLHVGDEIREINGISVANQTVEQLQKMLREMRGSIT

GST-SCRIB PDZ domain 3 = target: T3, GST-SCRIB PDZ domain 3 (UniProt Q14160 1004-1093); experiment: as above; conditions: both partners purified
T3 construct: scribble (SCRIB), PDZ domain 3 alone; also called SCRIB PDZ3; PDZ3; source: E. coli Rosetta (DE3), purified (glutathione agarose); not shown: GST, N-terminal, kept
T3 sequence (looked up): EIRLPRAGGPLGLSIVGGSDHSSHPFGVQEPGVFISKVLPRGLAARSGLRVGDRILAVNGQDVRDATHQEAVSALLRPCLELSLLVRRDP

GST-SCRIB PDZ domain 4 = GST-SCRIB PDZ domain 4 (UniProt Q14160 992-1203); experiment: as above; conditions: both partners purified
[4] = target: T4, α1-syntrophin (SNTA) PDZ domain (UniProt Q13424 87-170); experiment: as above; conditions: both partners purified
T4 construct: α1-syntrophin (SNTA), PDZ domain; The methods elute GST proteins with glutathione; TEV cleavage is told only for crystallography; source: E. coli Rosetta (DE3), purified (glutathione agarose)
T4 sequence (looked up): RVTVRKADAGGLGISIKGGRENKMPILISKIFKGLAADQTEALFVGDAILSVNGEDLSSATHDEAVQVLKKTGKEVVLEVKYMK

GST-SCRIB PDZ domain 2 = target: T5, GST-SCRIB PDZ domain 2 (UniProt Q14160 862-950); experiment: as above; conditions: both partners purified
T5 construct: scribble (SCRIB), PDZ domain 2 alone; also called SCRIB PDZ2; PDZ2; source: E. coli Rosetta (DE3), purified (glutathione agarose); not shown: GST, N-terminal, kept
T5 sequence (looked up): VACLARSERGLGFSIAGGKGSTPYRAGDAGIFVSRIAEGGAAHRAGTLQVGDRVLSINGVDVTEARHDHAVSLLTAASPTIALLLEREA

[5] = target: GST-SCRIB ΔPDZ34 (C-terminal truncation mutant missing PDZ3 and PDZ4); experiment: pull-down; SNAP GST-pulldown: 1 μM GST-tagged SCRIB proteins on glutathione agarose beads with serial dilutions of BG-782-labeled SNAP-α1D-CT, 1 h at 4 °C; washes 20 mM Tris-HCl pH 8.0, 200 mM NaCl, 0.05% NP-40; PAGE NIR
[6] = target: GST-SCRIB ΔPDZ4 (C-terminal truncation mutant missing PDZ4); experiment: as above

T1 sequence (Q14160 728-815): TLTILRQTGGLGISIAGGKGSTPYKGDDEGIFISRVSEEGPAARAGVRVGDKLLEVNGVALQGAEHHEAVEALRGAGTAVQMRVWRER

Kd [1]: 320 nM
Molecule: GST-SCRIB H1170A (PDZ4 mutation in SCRIB with all 4 PDZ domains) (domain or fragment)

Kd [1]: 340 nM
Molecule: SCRIB PDZ3 and PDZ4 (PDZ34) (domain or fragment)

Kd [1]: 160 nM
Molecule: GST-SCRIB ΔPDZ34 (C-terminal truncation mutant missing PDZ3 and PDZ4) (domain or fragment)

Kd [1]: 7340 nM
Molecule: GST-SCRIB H793A (PDZ1 mutation in SCRIB with all 4 PDZ domains) (domain or fragment)

Kd [1]: 140 nM
Molecule: GST-SCRIB ΔPDZ4 (C-terminal truncation mutant missing PDZ4) (domain or fragment)

Kd [1]: 70 nM
Molecule: GST-SCRIB containing all 4 PDZ domains (WT) (domain or fragment)

Kd [1]: 790 nM
Molecule: human discs large MAGUK scaffold protein 1 (DLG1) PDZ domains (domain or fragment)

Kd [2]: 76 nM
Kd (GST-SCRIB PDZ domain 1): 1930 nM
Kd [3]: 1150 nM
Kd (GST-SCRIB PDZ domain 3): 44200 nM
Kd (GST-SCRIB PDZ domain 4): 1140 nM
Kd [4]: 560 nM
Kd (GST-SCRIB PDZ domain 2): 14900 nM
B1: biotin-labeled peptide containing the last 20 amino acids of the α1D-adrenergic receptor C-terminus (peptide, UniProt P25100 553-572, looked up)
peptide: GATCQAYELADYSNLRETDI
modifications: also: biotin label (position not given here)
notes: α1D-adrenergic receptor, distal (last) 20 amino acids of the C-terminus; also called α1D-CT; α1D-AR C-terminal PDZ ligand; source: synthetic peptide, bought: BioMatik

maximal binding response, % of SCRIB WT (% of SCRIB WT) [5]: 34
maximal binding response, % of SCRIB WT (% of SCRIB WT) [6]: 48
Molecule: {BG‑782-SNAP tag}-QAYELADYSNLRETDI (not fully specified; reading uncertain)
